Results published in the supplement of paper PMC9112550, “Optimization of the antimicrobial peptide Bac7 by deep mutational scanning” (BMC Biology, 2022).

tested on: Escherichia coli TOP10; test: shrunken log2 fold change of peptide-encoding DNA abundance (4.5 h post-induction vs induction); higher = less antimicrobial activity (less host growth inhibition); details: time post-induction: 4.5 h; library: site-saturation at positions 5, 18, 19, 20
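Also: peptides expressed intracellularly from a pBAD plasmid library in pooled LB shake-flask culture, induced with 0.3% L-arabinose, DNA abundance read by NGS, three biological replicates, DESeq2 with apeglm shrinkage.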

Sequence | shrunken log2 fold change
RRIRSRPPRLPRPRPRPMHQPRP | -0.0538
RRIRSRPPRLPRPRPRPMINPRP | -0.23
RRIRSRPPRLPRPRPRPMITPRP | -0.19
RRIRSRPPRLPRPRPRPMKDPRP | -0.157
RRIRSRPPRLPRPRPRPMKNPRP | -0.145
RRIRSRPPRLPRPRPRPMKVPRP | -0.0404
RRIRSRPPRLPRPRPRPMLDPRP | -0.291
RRIRSRPPRLPRPRPRPMLMPRP | 0.00173
RRIRSRPPRLPRPRPRPMLSPRP | 0.149
RRIRSRPPRLPRPRPRPMNFPRP | -0.0407
RRIRSRPPRLPRPRPRPMNNPRP | -0.479
RRIRSRPPRLPRPRPRPMPGPRP | -0.102
RRIRSRPPRLPRPRPRPMPIPRP | -0.109
RRIRSRPPRLPRPRPRPMQIPRP | 0.141
RRIRSRPPRLPRPRPRPMQTPRP | 0.291
RRIRSRPPRLPRPRPRPMRHPRP | 3.44
RRIRSRPPRLPRPRPRPMSAPRP | 0.202
RRIRSRPPRLPRPRPRPMSEPRP | 0.0489
RRIRSRPPRLPRPRPRPMTVPRP | -0.0124
RRIRSRPPRLPRPRPRPMVDPRP | 0.197
RRIRSRPPRLPRPRPRPMVSPRP | 0.0287
RRIRSRPPRLPRPRPRPMWEPRP | 0.0252

Sequence | shrunken log2 fold change
RRIRSRPPRLPRPRPRPMWGPRP | -0.0451
RRIRSRPPRLPRPRPRPMWMPRP | -0.344
RRIRSRPPRLPRPRPRPMWYPRP | -0.0284
RRIRSRPPRLPRPRPRPMYHPRP | -0.762
RRIRSRPPRLPRPRPRPNALPRP | -0.0803
RRIRSRPPRLPRPRPRPNENPRP | -0.118
RRIRSRPPRLPRPRPRPNFAPRP | 0.245
RRIRSRPPRLPRPRPRPNFHPRP | -0.171
RRIRSRPPRLPRPRPRPNFWPRP | 0.0869
RRIRSRPPRLPRPRPRPNGEPRP | 0.0431
RRIRSRPPRLPRPRPRPNHMPRP | -0.236
RRIRSRPPRLPRPRPRPNHQPRP | -0.139
RRIRSRPPRLPRPRPRPNHSPRP | -0.736
RRIRSRPPRLPRPRPRPNKMPRP | -0.05
RRIRSRPPRLPRPRPRPNLGPRP | -0.0959
RRIRSRPPRLPRPRPRPNLNPRP | -0.307
RRIRSRPPRLPRPRPRPNMPPRP | -0.278
RRIRSRPPRLPRPRPRPNNEPRP | -0.631
RRIRSRPPRLPRPRPRPNPCPRP | -0.574
RRIRSRPPRLPRPRPRPNQFPRP | -0.232
RRIRSRPPRLPRPRPRPNQNPRP | -0.274
RRIRSRPPRLPRPRPRPNSEPRP | -0.262

Sequence | shrunken log2 fold change
RRIRSRPPRLPRPRPRPNSLPRP | -0.165
RRIRSRPPRLPRPRPRPNTGPRP | -0.336
RRIRSRPPRLPRPRPRPNVAPRP | -0.0788
RRIRSRPPRLPRPRPRPNVQPRP | -0.335
RRIRSRPPRLPRPRPRPNYFPRP | -0.828
RRIRSRPPRLPRPRPRPNYIPRP | -0.757
RRIRSRPPRLPRPRPRPNYKPRP | -0.546
RRIRSRPPRLPRPRPRPNYYPRP | -0.822
RRIRSRPPRLPRPRPRPPCGPRP | 0.182
RRIRSRPPRLPRPRPRPPCLPRP | -0.105
RRIRSRPPRLPRPRPRPPDWPRP | 0.661
RRIRSRPPRLPRPRPRPPEHPRP | 0.169
RRIRSRPPRLPRPRPRPPEYPRP | -0.154
RRIRSRPPRLPRPRPRPPFYPRP | -0.154
RRIRSRPPRLPRPRPRPPGFPRP | 0.467
RRIRSRPPRLPRPRPRPPGPPRP | 0.64
RRIRSRPPRLPRPRPRPPHRPRP | 0.182
RRIRSRPPRLPRPRPRPPHTPRP | 0.159
RRIRSRPPRLPRPRPRPPMQPRP | 0.268
RRIRSRPPRLPRPRPRPPNNPRP | -0.404
RRIRSRPPRLPRPRPRPPPTPRP | 0.914
RRIRSRPPRLPRPRPRPPRGPRP | 0.638

Sequence | shrunken log2 fold change
RRIRSRPPRLPRPRPRPPTHPRP | 0.197
RRIRSRPPRLPRPRPRPPTSPRP | 0.0457
RRIRSRPPRLPRPRPRPPWAPRP | 0.643
RRIRSRPPRLPRPRPRPPWWPRP | 0.828
RRIRSRPPRLPRPRPRPPYWPRP | 0.3
RRIRSRPPRLPRPRPRPQAGPRP | 0.165
RRIRSRPPRLPRPRPRPQAHPRP | -0.0418
RRIRSRPPRLPRPRPRPQDSPRP | -0.164
RRIRSRPPRLPRPRPRPQDVPRP | -0.277
RRIRSRPPRLPRPRPRPQFRPRP | -0.0597
RRIRSRPPRLPRPRPRPQGDPRP | 0.36
RRIRSRPPRLPRPRPRPQGVPRP | 0.225
RRIRSRPPRLPRPRPRPQGWPRP | 0.469
RRIRSRPPRLPRPRPRPQIGPRP | -1.62
RRIRSRPPRLPRPRPRPQIKPRP | 0.0447
RRIRSRPPRLPRPRPRPQKSPRP | -0.181
RRIRSRPPRLPRPRPRPQKVPRP | -0.203
RRIRSRPPRLPRPRPRPQLAPRP | 0.0789
RRIRSRPPRLPRPRPRPQLDPRP | -0.191
RRIRSRPPRLPRPRPRPQLVPRP | 0.0331
RRIRSRPPRLPRPRPRPQMFPRP | -0.0871
RRIRSRPPRLPRPRPRPQMPPRP | 0.189

Sequence | shrunken log2 fold change
RRIRSRPPRLPRPRPRPQMTPRP | -0.0755
RRIRSRPPRLPRPRPRPQNDPRP | -0.13
RRIRSRPPRLPRPRPRPQNIPRP | -0.657
RRIRSRPPRLPRPRPRPQNVPRP | -0.209
RRIRSRPPRLPRPRPRPQPHPRP | 0.17
RRIRSRPPRLPRPRPRPQQPPRP | -0.273
RRIRSRPPRLPRPRPRPQSHPRP | -0.216
RRIRSRPPRLPRPRPRPQSNPRP | -0.613
RRIRSRPPRLPRPRPRPQTLPRP | -0.119
RRIRSRPPRLPRPRPRPQVWPRP | 0.675
RRIRSRPPRLPRPRPRPQWSPRP | -0.176
RRIRSRPPRLPRPRPRPRDDPRP | 0.0905
RRIRSRPPRLPRPRPRPRDPPRP | 0.623
RRIRSRPPRLPRPRPRPRDWPRP | 0.4
RRIRSRPPRLPRPRPRPRESPRP | 0.092
RRIRSRPPRLPRPRPRPRIWPRP | 0.183
RRIRSRPPRLPRPRPRPRIYPRP | -0.517
RRIRSRPPRLPRPRPRPRKNPRP | -0.0439
RRIRSRPPRLPRPRPRPRKYPRP | -0.312
RRIRSRPPRLPRPRPRPRNKPRP | -0.0701
RRIRSRPPRLPRPRPRPRPAPRP | 0.467
